According to US20220268706A1:

Assays:
[1] = target: antibody-12/36-RLuc8 conjugate (Renilla reniformis); assay: BRET competition, Fluorostar; 50 nM mAb-12/36-RLuc8, 200 nM FLAG-GFP^2 as competitor
[2] = target: antibody-CLICK-RLuc8 (anti-FLAG mAb-dPEG4-DBCO:RLuc8:dPEG8azide conjugate) (Renilla reniformis); assay: BRET competition; 50 nM conjugate, 200 nM FLAG-GFP^2 as competitor, 1 µM FLAG peptide
[3] = target: antibody-CLICK-RLuc8 (anti-FLAG mAb-dPEG4-DBCO:RLuc8:dPEG8azide conjugate) (Renilla reniformis); assay: BRET competition; 5 nM antibody-CLICK-RLuc8, 150 nM FLAG-GFP^2 as competitor, 100 nM FLAG peptide; same for every order of addition

Sequence of antibody-CLICK-RLuc8 (anti-FLAG mAb-dPEG4-DBCO:RLuc8:dPEG8azide conjugate) (Renilla reniformis) (P27652 other isoform, or with tags, fused parts or gaps): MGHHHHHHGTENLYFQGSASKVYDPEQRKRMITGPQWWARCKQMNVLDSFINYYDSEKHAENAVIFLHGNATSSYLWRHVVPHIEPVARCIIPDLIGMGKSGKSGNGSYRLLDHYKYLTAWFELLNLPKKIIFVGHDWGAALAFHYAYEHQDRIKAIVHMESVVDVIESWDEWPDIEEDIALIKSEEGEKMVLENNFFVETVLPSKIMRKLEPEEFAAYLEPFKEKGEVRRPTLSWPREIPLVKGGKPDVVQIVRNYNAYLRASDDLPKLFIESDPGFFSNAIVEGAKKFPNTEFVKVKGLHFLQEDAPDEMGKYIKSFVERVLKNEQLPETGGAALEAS
Sequence of antibody-12/36-RLuc8 conjugate (Renilla reniformis) (P27652 other isoform, or with tags, fused parts or gaps): as above

EC50 [1]: 274 nM
response to 1 µM FLAG peptide [2]: 45%
decrease in the BRET ratio [3]: 22%
Substance: FLAG peptide (DYKDDDDK)
